Assay results from patent publication US7528244 (Amgen, dated 2009).

B1: FADD (other, UniProt Q13158 1-208, looked up)
chain: MDPFLVLLHSVSSSLSSSELTELKFLCLGRVGKRKLERVQSGLDLFSMLLEQNDLEPGHTELLRELLASLRRHDLLRRVDDFEAGAAAGAAPGEEDLCAAFNVICDNVGKDWRRLARQLKVSDTKIDSIEDRYPRNLTERVRESLRIWKNTEKENATVAHLVGALRSCQMNLVADLVQEVQQARDLQNRSGAMSPMSWNSDASTSEAS
notes: also called Flag-tagged FADD; AU1-tagged FADD
B2: caspase-3 (enzyme, UniProt P42574 1-277, looked up)
chain: MENTENSVDSKSIKNLEPKIIHGSESMDSGISLDNSYKMDYPEMGLCIIINNKNFHKSTGMTSRSGTDVDAANLRETFRNLKYEVRNKNDLTREEIVELMRDVSKEDHSKRSSFVCVLLSHGEEGIIFGTNGPVDLKKITNFFRGDRCRSLTGKPKLFIIQACRGTELDCGIETDSGVDDDMACHKIPVEADFLYAYSTAPGYYSWRNSKDGSWFIQSLCAMLKQYADKLEFMHILTRVNRKVATEFESFSFDATFHAKKQIPCIVSMLTKELYFYH
notes: also called caspase-3 precursor

What was measured:
[1] = target: T1, Casper (192-480) (human, UniProt O15519 192-480); assay: co-immunoprecipitation in 293 cells
T1 construct: also called C-terminal protease-like domain of Casper
T1 sequence (O15519 192-480): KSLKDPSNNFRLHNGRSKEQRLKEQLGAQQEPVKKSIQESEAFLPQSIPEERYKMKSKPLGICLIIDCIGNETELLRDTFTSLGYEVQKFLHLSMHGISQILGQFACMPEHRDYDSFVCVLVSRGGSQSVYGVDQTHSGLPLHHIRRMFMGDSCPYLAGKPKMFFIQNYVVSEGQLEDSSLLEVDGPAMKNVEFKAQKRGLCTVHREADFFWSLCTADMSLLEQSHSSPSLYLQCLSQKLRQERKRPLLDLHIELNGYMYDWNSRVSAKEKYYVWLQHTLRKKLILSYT

[2] = target: T1, Casper (192-480); assay: anti-Flag immunoprecipitation, caspase-3 immunoblot, 293 cells
[3] = target: T2, CrmA (UniProt P07385 1-341); assay: co-transfection and co-immunoprecipitation in mammalian cells
T2 construct: also called Myc-CrmA

Binder	binding result [1]	binding result [2]	binding result [3]
B1	no binding		
B2		binds	no binding
